Values quoted from earlier work as cited in article PMC4492699.

Target: HER2 (Homo sapiens) (UniProt P04626)

In the case of trastuzumab, the Kd is given as 0.1 nM.
